Measured values from patent US20250320286A1.

Biological target: 4U-3pE-beta-Amyloid
Assay: SPR; 4U-3pE-beta-Amyloid 0.6 to 4.5 nM

Kd: 0.0379 nM
koff: 0.000156 s⁻¹
kon: 4.11e+06 M⁻¹ s⁻¹
Substance: Control mAb (antibody)
